# Laboratory results from patent US20250361296A1 (BIOCYTOGEN PHARMACEUTICALS BEIJING, published 2025).
# T1: human SIGLEC14 on CHO-S-hSIGLEC14 cells (human, UniProt Q08ET2 17-358)
# T1 sequence: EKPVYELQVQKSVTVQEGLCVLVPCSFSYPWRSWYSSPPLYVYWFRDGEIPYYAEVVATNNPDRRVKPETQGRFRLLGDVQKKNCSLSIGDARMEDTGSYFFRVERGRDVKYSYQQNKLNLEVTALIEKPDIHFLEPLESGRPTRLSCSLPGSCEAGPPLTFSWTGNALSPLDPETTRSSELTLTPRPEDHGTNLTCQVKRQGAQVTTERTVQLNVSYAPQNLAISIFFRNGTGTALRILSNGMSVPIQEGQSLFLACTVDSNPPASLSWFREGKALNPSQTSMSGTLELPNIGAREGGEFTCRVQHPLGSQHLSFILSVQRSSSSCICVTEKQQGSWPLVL
# T2: human SIGLEC11 on CHO-S-hSIGLEC11 cells (human, UniProt Q96RL6 104-561)
# T2 sequence: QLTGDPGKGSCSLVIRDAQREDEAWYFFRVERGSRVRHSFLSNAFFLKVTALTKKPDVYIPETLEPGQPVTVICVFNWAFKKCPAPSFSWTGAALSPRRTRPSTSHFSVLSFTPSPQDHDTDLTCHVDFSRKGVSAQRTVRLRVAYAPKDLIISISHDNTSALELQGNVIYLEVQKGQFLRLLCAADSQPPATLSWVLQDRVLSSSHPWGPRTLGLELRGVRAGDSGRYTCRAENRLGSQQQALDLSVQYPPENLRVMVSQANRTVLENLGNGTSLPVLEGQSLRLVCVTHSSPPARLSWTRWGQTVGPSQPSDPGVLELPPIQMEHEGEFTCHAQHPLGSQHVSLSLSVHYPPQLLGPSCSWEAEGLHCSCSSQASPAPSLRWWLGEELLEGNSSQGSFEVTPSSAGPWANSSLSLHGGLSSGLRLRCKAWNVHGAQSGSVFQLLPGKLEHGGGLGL
# T3: human SIGLEC2 on CHO-S-hSIGLEC2 cells (human, UniProt P20273 20-687)
# T3 sequence: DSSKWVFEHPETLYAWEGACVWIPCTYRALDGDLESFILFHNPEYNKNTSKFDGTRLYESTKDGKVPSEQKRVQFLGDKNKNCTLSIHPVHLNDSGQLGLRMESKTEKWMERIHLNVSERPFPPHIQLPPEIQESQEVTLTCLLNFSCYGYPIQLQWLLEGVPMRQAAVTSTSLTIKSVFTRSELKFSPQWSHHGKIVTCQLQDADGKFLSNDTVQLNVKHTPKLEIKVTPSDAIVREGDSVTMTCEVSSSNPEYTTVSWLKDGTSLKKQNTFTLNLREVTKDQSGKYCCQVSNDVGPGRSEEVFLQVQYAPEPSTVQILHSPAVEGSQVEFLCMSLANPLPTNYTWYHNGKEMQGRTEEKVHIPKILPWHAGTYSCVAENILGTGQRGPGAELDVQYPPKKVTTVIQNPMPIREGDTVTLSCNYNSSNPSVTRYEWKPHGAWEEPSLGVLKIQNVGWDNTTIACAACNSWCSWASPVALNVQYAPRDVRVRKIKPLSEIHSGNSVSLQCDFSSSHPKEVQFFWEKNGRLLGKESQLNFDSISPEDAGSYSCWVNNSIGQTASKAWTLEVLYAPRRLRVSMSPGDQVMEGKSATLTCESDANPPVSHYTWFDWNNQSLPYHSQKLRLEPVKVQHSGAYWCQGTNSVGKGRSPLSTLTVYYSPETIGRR
# B1: anti-SIGLEC15 antibody 10C9 (antibody, human IgG1, V domains shown)
# VH: QVQLVQSGAEVKKPGATVKVSCKASGYTFTNYGFSWVRQAPGQGLEWMGWINTYNDNTNYAQKFQGRVTMTTDTSTSTAYMELRSLRSDDTAVYYCARDGLWFGELPHYFDYWGQGTLVTVSS
# VL: DIQLTQSPLSSPVTLGQPASISCRSSQSLVNSDGETFLSWLQQRPGQPPRLLIYKISNRFSGVPDRFSGSGAGTDFTLKISRVEAEDVGVYYCMQATQFPHTFGQGTKLEIK
# B2: anti-SIGLEC15 antibody 23F4 (antibody, human IgG1, V domains shown)
# VH: QVQLQQWGAGLLKPSETLSLTCAVYGGSFSGYFWSWIRQPPGKGLEWIGEINHSGSTNYNPSLKSRVTLSVDTSKNQFSLKLSSVTAADTAVYYCAREGDSSSWGNWFDPWGQGTLVTVSS
# VL: EIVLTQSPGTLSLSPGERATLSCRASQSVSSSYLAWYQQKPGQAPRFLIYGASSRATGIPDRFSGSGSGTDFTLTISRLEPEDFAVYYCQQFGNSPLTFGGGTKVEIK
# B3: anti-SIGLEC15 antibody 10A7 (antibody, human IgG1, V domains shown)
# VH: EVQLVQSGGGLVQPGGSLRLSCAASGFTFSNYEMNWVRQAPGKGLEWISYISNSGSTIYYADSVKGRFTISRDDAKNSLYLQMNSLRAEDTAVYYCAREDYDSSGYYWFDPWGQGTPVTVSS
# VL: DIQLTQSPSSVSASVGDRVTITCRASQGISSWLAWYQQKPGKAPKLLIYAASSLQSGVPSRFSGSGSGTDFTLTINSLQPEDFATYYCQQTNSFPLTFGGGTKVEIK
# Biological target: T1, human SIGLEC14 on CHO-S-hSIGLEC14 cells
# Test: flow cytometry, CHO-S cells expressing the target; on Percentage of Positive Cells: test concentration or dose not given here
# Method: (§1) CHO-S-hSIGLEC15 cells, CHO-S-mSIGLEC15 cells, CHO-S-fasSIGLEC15 cells or CHO-S-dSIGLEC15 cells were transferred to a 96-well plate at a density of 5×10⁴ cells/well respectively. Serially diluted sample anti-SIGLEC15 antibodies were added to the 96-well plate, and incubated at 4° C. for 30 min. Then, the cells were incubated with the secondary antibody anti-hIgG-Fc-Alex Flour 647 (RL1-H) (Jackson ImmunoResearch Laboratories, Inc., 109-606-170) at 4° C. in the dark for 15 minutes before flow cytometry analysis.
# (§2) Another similar experiment was performed to determine whether the anti-SIGLEC15 antibodies can bind with other SIGLEC family proteins. CHO-S-hSIGLEC1 cells (expressing hSIGLEC1, SEQ ID NO: 49)), CHO-S-hSIGLEC2 cells (expressing hSIGLEC2, SEQ ID NO: 50), CHO-S-hSIGLEC4 cells (expressing hSIGLEC4, SEQ ID NO: 51), CHO-S-hSIGLEC5 cells (expressing hSIGLEC5, SEQ ID NO: 52), CHO-S-hSIGLEC6 cells (expressing hSIGLEC6, SEQ ID NO: 53), CHO-S-hSIGLEC7 cells (expressing hSIGLEC7, SEQ ID NO: 54), CHO-S-hSIGLEC8 cells (expressing hSIGLEC8, SEQ ID NO: 55), CHO-S-hSIGLEC9 cells (expressing hSIGLEC9, SEQ ID NO: 56), CHO-S-hSIGLEC10 cells (expressing hSIGLEC10, SEQ ID NO: 57), CHO-S-hSIGLEC11 cells (expressing hSIGLEC11, SEQ ID NO: 58), CHO-S-hSIGLEC12 cells (expressing hSIGLEC12, SEQ ID NO: 59), CHO-S-hSIGLEC14 cells (expressing hSIGLEC14, SEQ ID NO: 60) or CHO-S-hSIGLEC16 cells (expressing hSIGLEC16, SEQ ID NO: 61) were used.
Percentage of Positive Cells,binding result,Binder
0.2%,no binding,B1
1.3%,no binding,B2
0.1%,no binding,B3

# Biological target: human SIGLEC1 on CHO-S-hSIGLEC1 cells (human, UniProt Q9BZZ2 20-1641)
# Test: flow cytometry, CHO-S cells expressing the target; on Percentage of Positive Cells: test concentration or dose not given here
# Method: as §1, §2
# Chain of human SIGLEC1 on CHO-S-hSIGLEC1 cells (Q9BZZ2 20-1641): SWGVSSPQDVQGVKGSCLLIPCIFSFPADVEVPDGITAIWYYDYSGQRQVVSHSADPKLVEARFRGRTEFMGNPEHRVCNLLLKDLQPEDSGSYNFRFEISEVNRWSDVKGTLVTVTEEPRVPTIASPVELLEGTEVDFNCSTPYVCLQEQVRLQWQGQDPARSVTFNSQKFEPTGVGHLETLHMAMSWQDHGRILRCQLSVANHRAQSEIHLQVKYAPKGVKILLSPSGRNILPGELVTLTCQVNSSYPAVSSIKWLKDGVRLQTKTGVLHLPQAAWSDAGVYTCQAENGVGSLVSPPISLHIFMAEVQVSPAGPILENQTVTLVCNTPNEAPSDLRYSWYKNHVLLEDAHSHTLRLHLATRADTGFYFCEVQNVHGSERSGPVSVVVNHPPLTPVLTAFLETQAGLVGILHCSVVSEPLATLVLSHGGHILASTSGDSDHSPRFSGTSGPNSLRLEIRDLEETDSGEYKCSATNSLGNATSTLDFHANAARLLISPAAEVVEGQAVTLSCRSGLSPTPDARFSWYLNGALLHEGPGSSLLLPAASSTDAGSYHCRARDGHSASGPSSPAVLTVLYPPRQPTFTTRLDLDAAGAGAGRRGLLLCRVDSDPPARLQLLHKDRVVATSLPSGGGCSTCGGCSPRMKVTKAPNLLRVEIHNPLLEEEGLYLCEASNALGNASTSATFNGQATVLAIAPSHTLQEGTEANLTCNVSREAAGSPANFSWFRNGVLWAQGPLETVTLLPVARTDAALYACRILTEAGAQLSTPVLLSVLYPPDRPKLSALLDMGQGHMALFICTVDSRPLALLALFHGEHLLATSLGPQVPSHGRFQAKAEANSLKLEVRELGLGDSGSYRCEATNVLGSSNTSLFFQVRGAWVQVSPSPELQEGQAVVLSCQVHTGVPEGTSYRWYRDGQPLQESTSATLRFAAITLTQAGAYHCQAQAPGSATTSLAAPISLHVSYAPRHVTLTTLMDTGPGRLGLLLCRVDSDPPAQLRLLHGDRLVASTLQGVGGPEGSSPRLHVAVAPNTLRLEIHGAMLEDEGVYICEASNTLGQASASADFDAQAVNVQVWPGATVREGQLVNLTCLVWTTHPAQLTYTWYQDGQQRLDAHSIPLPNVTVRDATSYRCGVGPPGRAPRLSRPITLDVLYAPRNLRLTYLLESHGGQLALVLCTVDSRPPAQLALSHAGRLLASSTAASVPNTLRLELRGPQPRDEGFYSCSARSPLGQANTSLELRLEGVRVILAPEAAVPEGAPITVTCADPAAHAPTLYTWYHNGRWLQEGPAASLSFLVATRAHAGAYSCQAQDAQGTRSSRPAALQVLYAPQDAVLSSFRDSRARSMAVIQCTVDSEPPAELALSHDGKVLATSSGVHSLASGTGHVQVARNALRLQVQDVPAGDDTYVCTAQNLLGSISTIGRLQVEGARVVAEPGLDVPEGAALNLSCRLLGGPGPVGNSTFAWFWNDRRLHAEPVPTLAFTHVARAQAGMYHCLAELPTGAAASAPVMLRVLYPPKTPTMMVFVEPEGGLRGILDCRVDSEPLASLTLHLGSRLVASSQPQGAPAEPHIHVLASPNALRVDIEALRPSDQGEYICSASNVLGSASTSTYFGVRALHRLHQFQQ
Percentage of Positive Cells,binding result,Binder
0.1%,no binding,B1
1.1%,no binding,B2
0%,no binding,B3

# Biological target: T2, human SIGLEC11 on CHO-S-hSIGLEC11 cells
# Test: flow cytometry, CHO-S cells expressing the target; on Percentage of Positive Cells: test concentration or dose not given here
# Method: as §1, §2
Percentage of Positive Cells,binding result,Binder
0.1%,no binding,B1
0.2%,no binding,B2
0.1%,no binding,B3

# Biological target: T3, human SIGLEC2 on CHO-S-hSIGLEC2 cells
# Test: flow cytometry, CHO-S cells expressing the target; on Percentage of Positive Cells: test concentration or dose not given here
# Method: as §1, §2
Percentage of Positive Cells,binding result,Binder
0.3%,no binding,B1
1.8%,no binding,B2
0%,no binding,B3

# Biological target: human SIGLEC6 on CHO-S-hSIGLEC6 cells (human, UniProt O43699 27-347)
# Test: flow cytometry, CHO-S cells expressing the target; on Percentage of Positive Cells: test concentration or dose not given here
# Method: as §1, §2
# Chain of human SIGLEC6 on CHO-S-hSIGLEC6 cells (O43699 27-347): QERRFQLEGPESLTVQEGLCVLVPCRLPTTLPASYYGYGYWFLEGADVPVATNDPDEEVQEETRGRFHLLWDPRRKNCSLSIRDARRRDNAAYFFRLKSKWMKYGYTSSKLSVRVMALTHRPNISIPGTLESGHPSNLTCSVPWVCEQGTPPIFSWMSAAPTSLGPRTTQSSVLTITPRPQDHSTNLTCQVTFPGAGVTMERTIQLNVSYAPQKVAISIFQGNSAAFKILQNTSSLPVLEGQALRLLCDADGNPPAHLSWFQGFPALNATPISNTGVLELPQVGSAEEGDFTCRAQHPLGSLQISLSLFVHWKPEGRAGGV
Percentage of Positive Cells,binding result,Binder
0.5%,no binding,B1
1.5%,no binding,B2
0.7%,no binding,B3

# Biological target: human SIGLEC12 on CHO-S-hSIGLEC12 cells (human, UniProt Q96PQ1 19-481)
# Test: flow cytometry, CHO-S cells expressing the target; on Percentage of Positive Cells: test concentration or dose not given here
# Method: as §1, §2
# Chain of human SIGLEC12 on CHO-S-hSIGLEC12 cells (Q96PQ1 19-481): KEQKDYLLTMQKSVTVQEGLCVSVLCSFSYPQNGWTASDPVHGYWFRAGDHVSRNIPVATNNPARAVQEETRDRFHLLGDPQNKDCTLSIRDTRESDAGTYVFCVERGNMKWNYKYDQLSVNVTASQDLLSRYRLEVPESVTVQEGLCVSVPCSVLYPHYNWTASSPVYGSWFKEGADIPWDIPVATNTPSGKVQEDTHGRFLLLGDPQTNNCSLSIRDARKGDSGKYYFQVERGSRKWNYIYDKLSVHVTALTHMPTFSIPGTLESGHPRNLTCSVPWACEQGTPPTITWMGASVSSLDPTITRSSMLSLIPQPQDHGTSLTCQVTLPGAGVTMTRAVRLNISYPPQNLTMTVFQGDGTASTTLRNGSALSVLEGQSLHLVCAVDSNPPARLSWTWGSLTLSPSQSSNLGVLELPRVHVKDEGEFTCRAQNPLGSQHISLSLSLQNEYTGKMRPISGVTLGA
Percentage of Positive Cells,binding result,Binder
0.1%,no binding,B1
0.4%,no binding,B2
0%,no binding,B3

# Biological target: human SIGLEC9 on CHO-S-hSIGLEC9 cells (human, UniProt Q9Y336 18-348)
# Test: flow cytometry, CHO-S cells expressing the target
# Method: as §1, §2
# Chain of human SIGLEC9 on CHO-S-hSIGLEC9 cells (Q9Y336 18-348): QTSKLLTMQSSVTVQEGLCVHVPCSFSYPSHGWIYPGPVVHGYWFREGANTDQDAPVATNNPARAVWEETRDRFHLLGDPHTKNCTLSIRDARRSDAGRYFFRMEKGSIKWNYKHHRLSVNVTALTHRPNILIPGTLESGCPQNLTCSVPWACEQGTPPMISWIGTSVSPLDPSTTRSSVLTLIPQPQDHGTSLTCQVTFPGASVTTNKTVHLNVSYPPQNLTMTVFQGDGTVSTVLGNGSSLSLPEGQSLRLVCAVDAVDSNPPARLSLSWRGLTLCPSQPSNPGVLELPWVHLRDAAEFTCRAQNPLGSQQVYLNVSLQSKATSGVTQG
Percentage of Positive Cells,binding result,Binder
0.1%,no binding,B1
0.7%,no binding,B2
0.3%,no binding,B3
